# Assay results as given in patent US20250051463A1, “CD123 ANTIBODY-DRUG CONJUGATES AND METHODS OF USING THE SAME” (ASTRAZENECA AB, priority 2023, published 2025).
# Test system: healthy donor BMMC
# Assay: Colony forming unit (CFU) assay
# Assay type: cell-based, human
# Conditions: 24 hours treatment, colonies at 14 days
# Method: The potency of HT12-GL ADC (HT12-GL-SG3932) was compared to CD33 Mylotarg ADC and isotype ADC in colony forming unit (CFU) assays. For colony forming unit assays, primary healthy donor samples and AML patient samples were subjected to a dose titration of HT12-GL ADC (HT12-GL-SG3932), Isotype ADC, or Mylotarg for 24 hours. Cells were subsequently mixed in Methocult (StemCell) and seeded in 6-well SmartDish's (StemCell). Colonies were counted at 14 days post-seeding using a STEMvision instrument (StemCell). EC50 values were calculated based on the reduction of colonies following drug treatment compared to control groups.
substance,measurement,value
Mylotarg: CD33 ADC Mylotarg [reference compound],CFU toxicity in healthy donor BMMC,toxic
